Measurements from patent US12545899B2, “Luciferase enzymes for use with thermostable luciferins in bioluminescent assays” (Promega Corporation, priority 2018, dated 2026).
Numbering of substitutions follows the chain as printed. In names and notes the source's numbering stands.

B1: C2242E1: SEQ ID NO: 42; H244W+T344A+I396K+S193A+N228D+L305F+S306P+I109V+C38R+F55I+V262A+I422V (protein)
chain: MADKNILYGPEPFYPLEDGTAGEQMFDALSRYAAIPGRIALTNAHTKENVLYEEILKLSCRLAESFKKYGLKQNDTIAVCSENSLQFFLPVIASLYLGIIVAPVNDKYVERELIHSLGIVKPRIVFCSKNTFQKVLNVKSKLKSIETIIILDLNEDLGGYQCLNNFISQNSDSNLDVKKFKPYSFNRDDQVAAIMFSSGTTGLPKGVMLTHKNIVARFSIAKDPTFGDAINPTSAILTVIPFHWGFGMMTTLGYFTCGFRVALMHTFEEKLFLQSLQDYKVESTLLVPTLMAFLAKSALVEKYDFPHLKEIASGGAPLSKEIGEMVKKRFKLNFVRQGYGLTEATSAVLITPKGDAKPGSTGKIVPLHAVKVVDPTTGKILGPNEPGELYFKGPMKMKGYYNNEEATKAIIDNDGWLRSGDVAYYDNDGHFYIVDRLKSLIKYKGYQVAPAEIEGILLQHPYIVDAGVTGIPDEAAGELPAAGVVVQTGKYLNEQIVQDYVASQVSTAKWLRGGVKFLDEIPKGSTGKIDRKVLRQMLEKHTNGHHHHHHHH
B2: MK0144: SEQ ID NO: 110; H244W+S193A+N228D+L305F+S306P+I109V+C38R+F55I+Y108F+A316W+Y339M+T342S+V348I+K353R (protein)
chain: B1 chain with Y108F, A262V, A316W, Y339M, T342S, A344T, V348I, K353R, K396I, V422I
B3: MK0141: SEQ ID NO: 108; H244W+S193A+N228D+L305F+S306P+I109V+C38R+F55I+Y108F+A316W+Y339M+T342S+V348I+T284A (protein)
chain: B1 chain with Y108F, A262V, T284A, A316W, Y339M, T342S, A344T, V348I, K396I, V422I
B4: MK0142: SEQ ID NO: 109; H244W+S193A+N228D+L305F+S306P+I109V+C38R+F55I+Y108F+A316W+Y339M+T342S+V348I+T289R (protein)
chain: B1 chain with Y108F, A262V, T289R, A316W, Y339M, T342S, A344T, V348I, K396I, V422I
B5: C2261D1: SEQ ID NO: 52; H244W+T344A+I396K+S193A+N228D+L305F+S306P+I109V+K121Q+V261A+V287I (protein)
chain: B1 chain with R38C, I55F, K121Q, V261A, A262V, V287I, V422I
B6: C2158A3: SEQ ID NO: 45; H244W+T344A+I396K+S193A+N228D+L305F+S306P+I109V+Q487R (protein)
chain: B1 chain with R38C, I55F, A262V, V422I, Q487R
B7: MK0146: SEQ ID NO: 112; H244W+S193A+N228D+L305F+S306P+I109V+C38R+F55I+Y108F+A316W+Y339M+T342S+V348I+L437R (protein)
chain: B1 chain with Y108F, A262V, A316W, Y339M, T342S, A344T, V348I, K396I, V422I, L437R
B8: C2261D9: SEQ ID NO: 41; H244W+T344A+I396K+S193A+N228D+L305F+S306P+I109V+C38R+Y108F+T376I (protein)
chain: B1 chain with I55F, Y108F, A262V, T376I, V422I
B9: C2260B6: SEQ ID NO: 43; H244W+T344A+I396K+S193A+N228D+L305F+S306P+I109V+Y108F+V261A+N427D+F431V (protein)
chain: B1 chain with R38C, I55F, Y108F, V261A, A262V, V422I, N427D, F431V
B10: C2240E2: SEQ ID NO: 40; H244W+T344A+I396K+S193A+N228D+L305F+S306P+I109V+I230F+V335G+I410M (protein)
chain: B1 chain with R38C, I55F, I230F, A262V, V335G, I410M, V422I

Experiments:
[1] = Differential scanning fluorimetry (DSF) analysis; assay type: physicochemical; design: key to DSF Tm: melting temperature in °C (heated 30-95 °C at 1 °C/min); settings: for DSF Tm: Table 7A; for DSF Tm (° C.): Table 12
Experimental: (§1) To conduct the experiment, Sypro Orange (5000×) was diluted in water to 3× and combined with enzymes stored in 50 mM HEPES pH 7.5, 100 mM NaCl, 2 mM EDTA to a final concentration of 5×. Fluorescence was read at 60 second intervals as the reactions were heated at 1° C. per minute from 30-95° C. The change in fluorescence at each minute was calculated and plotted for each temperature in the range.
as §1, with “The luciferase enzyme variants generated were also evaluated using DSF analysis as shown in the representative results provided in Tables 7A and 7B above. To” for “To”, “the experiments,” for “the experiment,”, “in 20” for “in 50”, “7.5, 200” for “7.5, 100”, “NaCl, 1” for “NaCl, 2”

[2] = Brightness of additional luciferase enzyme variants with CS0280; assay type: biochemical; settings: Table 7A, 1 mM CS0280; for Fold-improvement over ATG3707, CS0280 BG: Bright-Glo buffer; for Fold-improvement over ATG3707, CS0280 DR: Detection Reagent buffer
Experimental: (§2) Additional luciferase enzyme variants were generated and evaluated for their stability and activity. To evaluate the additional luciferase enzyme variants, 0.005 mg/ml luciferase enzyme variant was mixed with 1 mM ATP+1 mM substrate in either Bright-Glo™ (BG) or Detection Reagent (DR) buffers. […] (Table 7A is colored according to their relative luminescence values within each column across a red to green color spectrum with the lowest values colored red and the highest values colored green.)

[3] = Brightness of additional luciferase enzyme variants with CS0333; assay type: biochemical; settings: Table 7A, 1 mM CS0333; for Fold-improvement over ATG3707, CS0333 BG: Bright-Glo buffer; for Fold-improvement over ATG3707, CS0333 DR: Detection Reagent buffer
Experimental: as §2

[4] = Kinetic analysis of ATG-3707 variants with CS0333; assay type: biochemical
Experimental: Additionally, Table 5 (below) includes kinetic analysis of the ATG-3707 variants identified above. Reagent compositions included CS0333 serially diluted 10-fold from 1 mM to 10 fM in reaction buffer with 2 mM ATP. […] Reactions were incubated at 25° C. for 3 min, and luminescence was read and then normalized to ATG-3707 activity tested in parallel. […] Since C2157D2 was selected for improved brightness in CellTiterGlo® buffer over ATG-3707, it still had beneficial properties.

[5] = Luminescence of ATG-3707 variants (second round epPCR) with CS0333; assay type: biochemical; settings: for Luminescence (RLU) BrightGlo / Normalized Luminescence BrightGlo: BrightGlo buffer; for Luminescence (RLU) BrightGlo / Luminescence (RLU) CellTiterGlo / Luminescence (RLU) Detection Reagent: 25° C., 3 min; for Normalized Luminescence BrightGlo / Normalized Luminescence CellTiterGlo / Normalized Luminescence Detection Reagent: normalized to ATG-3707; for Luminescence (RLU) CellTiterGlo / Normalized Luminescence CellTiterGlo: CellTiterGlo buffer; for Luminescence (RLU) Detection Reagent / Normalized Luminescence Detection Reagent: Detection Reagent buffer
Experimental: Reagent compositions included CS0333 diluted from 20 mM to 2 mM in reaction buffer with 2 mM ATP. […] Reactions were incubated at 25° C. for 3 min, and luminescence was read and then normalized to ATG-3707 activity tested in parallel.

[6] = Kinetic analysis of thermostable variants with 400 fM-4 mM CS0280 (Table 12); assay type: biochemical; settings: 4 mM ATP
Experimental: Table 12 includes representative results of kinetic analysis of the thermostable variants with 400 fM-4 mM CS0280. This panel of enzyme variants have a combination of improved thermostability and brightness with CS0280 relative to their progenitor enzyme variants MK134 and MK137.

Molecule | DSF Tm [1] | Fold-improvement over ATG3707, CS0280 BG [2] | Fold-improvement over ATG3707, CS0280 DR [2] | Fold-improvement over ATG3707, CS0333 BG [3] | Fold-improvement over ATG3707, CS0333 DR [3] | Km ([4]; BrightGlo) [µM] | Vmax (RLU) ([4]; BrightGlo) | Km ([4]; Detection Reagent) [µM] | Vmax (RLU) ([4]; Detection Reagent) | Luminescence (RLU) BrightGlo [5] [RLU] | Normalized Luminescence BrightGlo [5] | Luminescence (RLU) CellTiterGlo [5] [RLU] | Normalized Luminescence CellTiterGlo [5] | Luminescence (RLU) Detection Reagent [5] [RLU] | Normalized Luminescence Detection Reagent [5] | DSF Tm (° C.) [1] [°C] | Km ([6]; BrightGlo Buffer) [µM] | Vmax (RLU) ([6]; BrightGlo Buffer) | Km ([6]; Detection Reagent Buffer) [µM] | Vmax (RLU) ([6]; Detection Reagent Buffer)
B1 | 54 | 1.25 | 1.56 | 1.75 | 1.63 | 5.81 | 7,021,077 RLU | 109 | 5,366,355 RLU | 5643850 | 1.45 | 708509 | 1.10 | 6604720 | 1.28 |  |  |  |  | 
B2 |  |  |  |  |  |  |  |  |  |  |  |  |  |  |  | 73 | 10.5 | 1,586,262 RLU | 35.4 | 43,744 RLU
B3 |  |  |  |  |  |  |  |  |  |  |  |  |  |  |  | 73 | 7.12 | 1,701,019 RLU | 40.6 | 89,238 RLU
B4 |  |  |  |  |  |  |  |  |  |  |  |  |  |  |  | 71 | 4.98 | 1,409,786 RLU | 32.3 | 70,257 RLU
B5 | 54 | 2.02 | 2.41 | 1.27 | 1.24 | 5.92 | 4,702,332 RLU | 79.8 | 4,103,451 RLU | 3436380 | 0.88 | 841889 | 1.31 | 4820920 | 0.93 |  |  |  |  | 
B6 | 61 | 1.30 | 1.49 | 0.92 | 1.15 | 5.15 | 4,009,543 RLU | 101 | 3,944,016 RLU | 3392960 | 0.87 | 1027180 | 1.59 | 6034440 | 1.17 |  |  |  |  | 
B7 |  |  |  |  |  |  |  |  |  |  |  |  |  |  |  | 72 | 4.21 | 1,114,607 RLU | 33.3 | 55,964 RLU
B8 | 61 | 1.39 | 1.89 | 1.10 | 1.43 | 7.46 | 6,903,348 RLU | 117 | 6,756,516 RLU | 4380280 | 1.13 | 628712 | 0.98 | 6890380 | 1.34 |  |  |  |  | 
B9 | 55 | 0.82 | 0.97 | 0.70 | 1.00 | 4.06 | 4,439,047 RLU | 68.2 | 4,995,834 RLU | 2896240 | 0.74 | 921045 | 1.43 | 6230440 | 1.21 |  |  |  |  | 
B10 | 49 | 1.24 | 1.39 | 1.26 | 1.21 | 3.97 | 5,559,638 RLU | 88.7 | 5,831,602 RLU | 3202900 | 0.82 | 976519 | 1.51 | 6978270 | 1.35 |  |  |  |  | 
